Substitutions are numbered along the chain they refer to. Numbers in names are those of the source. Read-outs that look alike come from different tables or passages of the source.
T1: interleukin 18 binding protein (IL-18BP) (UniProt O95998 31-194)
T1 sequence (looked up): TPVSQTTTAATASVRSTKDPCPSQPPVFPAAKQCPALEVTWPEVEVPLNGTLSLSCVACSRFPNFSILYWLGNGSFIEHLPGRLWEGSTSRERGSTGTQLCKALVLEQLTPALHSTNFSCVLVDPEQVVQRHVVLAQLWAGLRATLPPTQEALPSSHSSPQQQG

T2: IL-18 receptor (IL-18Rα and IL-18Rβ) (UniProt Q13478 19-541; O95256 20-599, limits assumed)
T2 sequence (looked up) 1: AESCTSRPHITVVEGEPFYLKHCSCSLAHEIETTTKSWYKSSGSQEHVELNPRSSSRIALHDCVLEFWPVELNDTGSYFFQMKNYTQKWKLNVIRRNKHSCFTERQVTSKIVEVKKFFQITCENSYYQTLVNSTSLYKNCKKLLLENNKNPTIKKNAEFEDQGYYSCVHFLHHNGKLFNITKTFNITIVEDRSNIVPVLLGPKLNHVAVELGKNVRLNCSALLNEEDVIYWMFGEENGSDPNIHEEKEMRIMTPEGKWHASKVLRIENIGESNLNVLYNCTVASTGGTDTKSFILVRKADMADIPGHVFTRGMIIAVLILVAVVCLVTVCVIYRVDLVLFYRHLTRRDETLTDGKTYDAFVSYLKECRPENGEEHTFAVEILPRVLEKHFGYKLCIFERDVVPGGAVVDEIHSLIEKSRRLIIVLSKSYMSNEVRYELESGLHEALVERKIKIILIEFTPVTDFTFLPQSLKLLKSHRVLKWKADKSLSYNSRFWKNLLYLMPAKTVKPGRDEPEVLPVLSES
T2 sequence (looked up) 2: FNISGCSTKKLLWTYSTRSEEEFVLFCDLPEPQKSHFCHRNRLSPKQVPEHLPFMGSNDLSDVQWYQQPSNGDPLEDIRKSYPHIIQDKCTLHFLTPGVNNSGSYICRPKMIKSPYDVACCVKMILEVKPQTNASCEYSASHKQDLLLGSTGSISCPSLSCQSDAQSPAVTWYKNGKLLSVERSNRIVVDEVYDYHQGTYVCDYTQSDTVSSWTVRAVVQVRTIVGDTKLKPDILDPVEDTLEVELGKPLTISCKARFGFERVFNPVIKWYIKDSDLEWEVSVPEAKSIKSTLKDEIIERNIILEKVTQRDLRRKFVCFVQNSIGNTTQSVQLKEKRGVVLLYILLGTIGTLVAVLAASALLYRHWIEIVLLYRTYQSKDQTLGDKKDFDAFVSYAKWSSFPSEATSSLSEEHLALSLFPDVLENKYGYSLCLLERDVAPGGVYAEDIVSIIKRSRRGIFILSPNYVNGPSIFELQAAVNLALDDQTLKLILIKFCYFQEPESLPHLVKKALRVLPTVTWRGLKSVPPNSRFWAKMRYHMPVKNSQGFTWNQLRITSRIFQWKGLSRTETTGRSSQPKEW

T3: human IL-18 binding protein (IL-18BP) (human, UniProt O95998 31-194)
T3 construct: also called hu IL-18BP; hIL18BP
T3 sequence (looked up): T1 sequence (looked up)

T4: human IL-18R alpha/beta pair (IL-18Rab) (human, UniProt Q13478 19-329; O95256 20-356)
T4 construct: also called hu IL-18Rab
T4 sequence (looked up) 1: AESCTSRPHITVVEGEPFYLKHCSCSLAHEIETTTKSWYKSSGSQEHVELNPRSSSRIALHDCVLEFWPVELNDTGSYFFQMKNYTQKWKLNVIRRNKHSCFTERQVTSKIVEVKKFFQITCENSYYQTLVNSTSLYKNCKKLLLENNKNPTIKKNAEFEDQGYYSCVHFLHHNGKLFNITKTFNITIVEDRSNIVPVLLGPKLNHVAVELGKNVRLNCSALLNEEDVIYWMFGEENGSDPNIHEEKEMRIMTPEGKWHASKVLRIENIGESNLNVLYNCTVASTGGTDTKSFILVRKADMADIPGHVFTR
T4 sequence (looked up) 2: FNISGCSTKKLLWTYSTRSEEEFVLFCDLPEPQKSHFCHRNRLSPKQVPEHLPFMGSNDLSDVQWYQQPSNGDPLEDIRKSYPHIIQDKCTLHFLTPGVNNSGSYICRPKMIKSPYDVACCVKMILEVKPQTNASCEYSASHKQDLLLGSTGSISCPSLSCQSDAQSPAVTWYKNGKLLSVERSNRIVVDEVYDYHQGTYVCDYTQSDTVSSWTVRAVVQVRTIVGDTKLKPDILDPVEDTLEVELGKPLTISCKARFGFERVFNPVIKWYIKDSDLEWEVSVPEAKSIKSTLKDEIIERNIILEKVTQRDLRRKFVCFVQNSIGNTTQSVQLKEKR

T5: human IL-18 receptor alpha (IL-18Rα) (human, UniProt Q13478 19-329, limits assumed)
T5 construct: also called hu IL-18Ra; IL-18R alpha
T5 sequence (looked up): T4 sequence (looked up) 1

T6: IL-18 receptors on HEK-Blue IL-18 reporter cells (InvivoGen) (UniProt Q13478 19-541; O95256 20-599)
T6 sequence (looked up) 1: T2 sequence (looked up) 1
T6 sequence (looked up) 2: T2 sequence (looked up) 2

B1: Comparator 1 (ligand)
chain: YFGKLESKLSVIRNLNDQVLFIDQGNRPLFEDMTDSDCRDNAPRTIFIISKYSDSLARGLAVTISVKCEKISTLSCENKIISFKEMNPPDNIKDTKSDIIFFQRDVPGHSRKMQFESSSYEGYFLACEKERDLFKLILKKEDELGDRSIMFTVQNED
B2: mouse IL-18 binding protein (other, UniProt Q9Z0M9 29-193, looked up)
chain: TSAPQTTATVLTGSSKDPCSSWSPAVPTKQYPALDVIWPEKEVPLNGTLTLSCTACSRFPYFSILYWLGNGSFIEHLPGRLKEGHTSREHRNTSTWLHRALVLEELSPTLRSTNFSCLFVDPGQVAQYHIILAQLWDGLKTAPSPSQETLSSHSPVSRSAGPGVA
notes: also called Mouse IL18BP; Mouse IL-18BP
B3: mouse IL-18 receptor alpha (receptor, UniProt Q61098 20-326, looked up)
chain: KSCIHRSQIHVVEGEPFYLKPCGISAPVHRNETATMRWFKGSASHEYRELNNRSSPRVTFHDHTLEFWPVEMEDEGTYISQVGNDRRNWTLNVTKRNKHSCFSDKLVTSRDVEVNKSLHITCKNPNYEELIQDTWLYKNCKEISKTPRILKDAEFGDEGYYSCVFSVHHNGTRYNITKTVNITVIEGRSKVTPAILGPKCEKVGVELGKDVELNCSASLNKDDLFYWSIRKEDSSDPNVQEDRKETTTWISEGKLHASKILRFQKITENYLNVLYNCTVANEEAIDTKSFVLVRKEIPDIPGHVFTG
notes: also called Mouse IL18Ra; mouse IL-18R alpha
B4: IL-18 variant G3R, K53S (ligand)
chain: YFRKLESKLSVIRNLNDQVLFIDQGNRPLFEDMTDSDMRDNAPRTIFIISMYSDSQPRGMAVTISVKSEKISTLSSENKIISFKEMNPPDNIKDTKSDIIFFQRSVPGHDNKMQFESSSYEGYFLASEKERDLFKLILKKEDELGDRSIMFTVQNED
B5: IL-18 variant G3T, M60K, D157E (ligand)
chain: B4 chain with R3T, S53K, M60K, D157E
B6: IL-18 variant G3V, M60K (ligand)
chain: B4 chain with R3V, S53K, M60K

Experiments:
[1] = biological target: T1, interleukin 18 binding protein (IL-18BP); test: cell-based or functional assay
[2] = biological target: T2, IL-18 receptor (IL-18Rα and IL-18Rβ); test: cell-based or functional assay
[3] = biological target: T7, WT mouse IL-18 on monoFc scaffold (mouse; human, UniProt P70380 36-192); test: Octet BLI, monoFc scaffold
T7 construct: mature
T7 sequence (P70380 other isoform, or with tags, fused parts or gaps): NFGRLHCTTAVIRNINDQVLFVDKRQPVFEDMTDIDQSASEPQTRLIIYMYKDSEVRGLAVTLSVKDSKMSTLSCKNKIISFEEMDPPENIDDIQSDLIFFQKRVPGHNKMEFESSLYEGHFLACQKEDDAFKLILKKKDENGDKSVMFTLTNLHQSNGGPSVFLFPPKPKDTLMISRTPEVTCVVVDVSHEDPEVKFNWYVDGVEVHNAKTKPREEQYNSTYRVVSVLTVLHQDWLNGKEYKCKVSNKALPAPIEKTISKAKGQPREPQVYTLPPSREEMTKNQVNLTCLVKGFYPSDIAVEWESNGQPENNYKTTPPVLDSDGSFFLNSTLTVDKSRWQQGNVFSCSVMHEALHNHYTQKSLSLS
Protocol: (§1) Octet 96red instrument was used to determine affinities of IL18 proteins to BP or receptors. 5-10 ug/ml analyte proteins were used for loading on Sartorius tips (AHC or SA). […] 120-180 s loading, 200 s association and 800 s dissociation were used for kinetics. 3-7 data points were used to calculate affinities.
Several mouse variants were next tested for binding affinity to mouse IL-18R alpha and mouse IL-18BP.

[4] = biological target: T3, human IL-18 binding protein (IL-18BP); test: Octet BLI
[5] = biological target: T4, human IL-18R alpha/beta pair (IL-18Rab); test: Octet BLI
[6] = biological target: T3, human IL-18 binding protein (IL-18BP); test: Octet BLI; remark: listed apart in the source
[7] = biological target: T5, human IL-18 receptor alpha (IL-18Rα); test: Octet BLI
[8] = biological target: T2, IL-18 receptor (IL-18Rα and IL-18Rβ); test: cell-based or functional assay; remark: listed apart in the source
[9] = biological target: T3, human IL-18 binding protein (IL-18BP); test: cell-based or functional assay
[10] = biological target: T6, IL-18 receptors on HEK-Blue IL-18 …; test: cell-based or functional assay
[11] = biological target: T3, human IL-18 binding protein (IL-18BP); test: cell-based or functional assay; remark: listed apart in the source
[12] = biological target: T6, IL-18 receptors on HEK-Blue IL-18 …; test: cell-based or functional assay; remark: listed apart in the source
[13] = biological target: T3, human IL-18 binding protein (IL-18BP); test: cell-based or functional assay; remark: listed apart in the source
[14] = biological target: T6, IL-18 receptors on HEK-Blue IL-18 …; test: cell-based or functional assay; remark: listed apart in the source
[15] = biological target: T2, IL-18 receptor (IL-18Rα and IL-18Rβ); test: cell-based or functional assay; remark: listed apart in the source
[16] = biological target: T3, human IL-18 binding protein (IL-18BP); test: cell-based or functional assay; remark: listed apart in the source
[17] = biological target: T3, human IL-18 binding protein (IL-18BP); test: cell-based or functional assay; remark: listed apart in the source
[18] = biological target: T6, IL-18 receptors on HEK-Blue IL-18 …; test: cell-based or functional assay; remark: listed apart in the source
[19] = biological target: T4, human IL-18R alpha/beta pair (IL-18Rab); test: Octet BLI; remark: listed apart in the source
Protocol: as §1

[20] = biological target: T3, human IL-18 binding protein (IL-18BP); test: Octet BLI; remark: listed apart in the source
Protocol: as §1

[21] = biological target: T5, human IL-18 receptor alpha (IL-18Rα); test: Octet BLI; remark: listed apart in the source
Protocol: as §1

Binder	Kd [3]	Kd [5]	Kd [6]	Kd [7]	HEK-Blue Activity Assay Ec50 (pM), +50 nM hu IL-18BP [11]	HEK-Blue Activity Assay Ec50 (pM), -hu IL-18BP [12]	HEK-Blue Activity Assay Ec50 (pM), +300 nM hu IL-18BP [13]	HEK-Blue Activity Assay Ec50 (pM), -hu IL-18BP [14]	EC50 pM, IFN gamma expression in PBMCs, no BP [15]	EC50 pM, IFN gamma expression in PBMCs, + 300 nM BP [16]	Fold Change (BP/NO BP), 50 nM BP [17]	Fold Change (BP/NO BP), 300 nM BP [17]	HEK-Blue EC50 pM, +50 nM BP [17]	HEK-blue EC50 (pM) + 300 nM BP [17]	HEK-Blue EC50 pM, NO BP (50 nM BP run) [18]	HEK-Blue EC50 pM, NO BP (300 nM BP run) [18]	Kd [19]	Kd [20]	Kd [21]	other results
B1	–	–	–	–	–	–	–	–	–	–	–	–	–	–	–	–	–	–	–	EC50 (pM), PBMC IFN gamma assay, + 300 nM BP [1]: 8.78 pM; EC50 (pM), PBMC IFN gamma assay [2]: 4.86 pM
B2	2.24 nM	–	–	–	–	–	–	–	–	–	–	–	–	–	–	–	–	–	–	–
B3	13.3 nM	–	–	–	–	–	–	–	–	–	–	–	–	–	–	–	–	–	–	–
B4	–	0.09 nM	4.03 nM	197 nM	1.84 pM	0.31 pM	–	–	–	–	–	–	–	–	–	–	–	–	–	Kd [4]: 4 nM; koff [4]: 0.00143 s⁻¹; kon [4]: 356000 M⁻¹ s⁻¹; EC50 pM, IFN gamma expression in PBMCs [8]: 73.8 pM; HEK-Blue Ec50 (pM), +IL-18BP (50 nM) [9]: 1.84 pM; HEK-Blue Ec50 (pM), -IL-18BP [10]: 0.31 pM
B5	–	0.1 nM	686 nM	693 nM	0.65 pM	0.62 pM	2.77 pM	0.75 pM	127 pM	323 pM	1.05 fold	3.69 fold	0.65 pM	2.77 pM	0.62 pM	0.75 pM	0.1 nM	686 nM	693 nM	–
B6	–	0.07 nM	91 nM	41 nM	0.16 pM	0.12 pM	0.59 pM	0.18 pM	14.9 pM	14.4 pM	1.25 fold	3.25 fold	0.16 pM	0.59 pM	0.12 pM	0.18 pM	0.07 nM	91 nM	41 nM	–

Source: patent US20240182536A1 (MURAL ONCOLOGY, published 2024)
